Data: patent CN109836488A, “一种治疗代谢疾病的胰高血糖素类似物” (Zhejiang Doer Biologics Co Ltd, priority 2017, dated 2019)

Experiments:
[1] = cited from earlier work
[2] = Immunogenicity test, antibody titre by direct ELISA, Example 6; format: in vivo, mouse (Balb/c); conditions: 30 nmol/kg daily for 28 days, serum on day 45
[3] = target: T1, GIPR (Homo sapiens, UniProt P48546); conditions: cited from earlier work
T1 sequence (P48546 22-466): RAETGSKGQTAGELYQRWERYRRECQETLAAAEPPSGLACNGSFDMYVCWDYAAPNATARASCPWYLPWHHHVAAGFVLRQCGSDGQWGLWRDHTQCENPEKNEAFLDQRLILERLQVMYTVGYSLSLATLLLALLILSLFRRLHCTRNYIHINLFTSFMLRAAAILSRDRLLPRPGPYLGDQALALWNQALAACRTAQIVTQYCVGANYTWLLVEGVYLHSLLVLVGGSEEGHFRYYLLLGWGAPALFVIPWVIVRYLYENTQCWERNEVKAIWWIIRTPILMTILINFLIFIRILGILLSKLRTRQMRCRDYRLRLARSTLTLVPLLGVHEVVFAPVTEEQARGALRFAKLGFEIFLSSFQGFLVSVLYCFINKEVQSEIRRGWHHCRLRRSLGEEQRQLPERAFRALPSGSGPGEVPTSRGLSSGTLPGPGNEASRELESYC

[4] = human, in vivo; cited from earlier work

## GLP-1 [天然GLP-1]
[1]
  Half-life in vivo: ~2 分钟

## Glucagon [C001]
[2]
  Immunogenicity in vivo: 极低
[3]
  GIPR agonist activity: 没有GIPR激动活性

## Taspoglutide
[4]
  Antibody formation rate: 49 %
